Test results published in patent publication US20080038777A1.

Columns and labels:
[1] = target: human C-C chemokine receptor 2B (human) (UniProt P41597); test: cell-based or functional assay
[2] = target: dog-human chimeric C-C chemokine receptor 2B (dog-human chimera (synthetic)); test: cell-based or functional assay
dog-human chimeric C-C chemokine receptor 2B (dog-human chimera (synthetic)), sequence (chain, as listed by the source mutant limits assumed): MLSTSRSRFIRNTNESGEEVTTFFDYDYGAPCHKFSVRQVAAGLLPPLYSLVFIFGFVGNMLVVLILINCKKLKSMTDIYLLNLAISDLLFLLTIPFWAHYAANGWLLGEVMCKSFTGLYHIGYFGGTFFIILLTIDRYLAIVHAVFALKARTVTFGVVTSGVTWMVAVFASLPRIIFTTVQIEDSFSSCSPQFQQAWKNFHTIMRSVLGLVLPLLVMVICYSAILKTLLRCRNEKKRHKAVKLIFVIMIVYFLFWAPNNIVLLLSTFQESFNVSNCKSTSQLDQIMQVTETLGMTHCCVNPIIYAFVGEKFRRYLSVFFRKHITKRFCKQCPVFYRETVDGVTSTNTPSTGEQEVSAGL

human C-C chemokine receptor 2B (human), sequence (P41597 whole entry): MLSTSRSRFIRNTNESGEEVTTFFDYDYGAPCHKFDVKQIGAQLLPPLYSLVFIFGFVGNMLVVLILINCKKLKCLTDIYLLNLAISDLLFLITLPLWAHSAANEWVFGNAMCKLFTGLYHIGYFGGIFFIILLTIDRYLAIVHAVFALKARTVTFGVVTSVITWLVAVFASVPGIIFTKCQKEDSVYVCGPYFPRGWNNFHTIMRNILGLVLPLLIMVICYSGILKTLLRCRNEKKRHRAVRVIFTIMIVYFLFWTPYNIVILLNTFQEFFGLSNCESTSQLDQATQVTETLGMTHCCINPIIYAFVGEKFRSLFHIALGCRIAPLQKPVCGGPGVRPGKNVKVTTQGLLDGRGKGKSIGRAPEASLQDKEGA

Row | Substance | EC50 of calcium mobilization (FLIPR), THP-1 cells [1] [µM] | EC50 of MCP-1-dependent calcium mobilization (FLIPR), CHO-K1 cells expressing the chimeric receptor [2] [µM] | EC50 of MCP-1 signaling (calcium mobilization, FLIPR) in THP-1 cells [1] [µM] | calcium mobilization (FLIPR), THP-1 cells [1] [nM]
1 | canine monocyte chemoattractant protein-1 (from UniProt P52203 24-101) (ligand) | 0.053 |  |  | 
2 | mouse monocyte chemoattractant protein-1 (from UniProt P10148 24-148) (ligand) | 0.03 |  |  | 
3 | human monocyte chemoattractant protein-1 (from UniProt P13500 24-99) (ligand) |  | 0.0015 | 0.003 | 8
